Assay results from paper PMC1188515.

T1: ScMre11p (Saccharomyces cerevisiae, UniProt P32829 1-692)
T1 sequence: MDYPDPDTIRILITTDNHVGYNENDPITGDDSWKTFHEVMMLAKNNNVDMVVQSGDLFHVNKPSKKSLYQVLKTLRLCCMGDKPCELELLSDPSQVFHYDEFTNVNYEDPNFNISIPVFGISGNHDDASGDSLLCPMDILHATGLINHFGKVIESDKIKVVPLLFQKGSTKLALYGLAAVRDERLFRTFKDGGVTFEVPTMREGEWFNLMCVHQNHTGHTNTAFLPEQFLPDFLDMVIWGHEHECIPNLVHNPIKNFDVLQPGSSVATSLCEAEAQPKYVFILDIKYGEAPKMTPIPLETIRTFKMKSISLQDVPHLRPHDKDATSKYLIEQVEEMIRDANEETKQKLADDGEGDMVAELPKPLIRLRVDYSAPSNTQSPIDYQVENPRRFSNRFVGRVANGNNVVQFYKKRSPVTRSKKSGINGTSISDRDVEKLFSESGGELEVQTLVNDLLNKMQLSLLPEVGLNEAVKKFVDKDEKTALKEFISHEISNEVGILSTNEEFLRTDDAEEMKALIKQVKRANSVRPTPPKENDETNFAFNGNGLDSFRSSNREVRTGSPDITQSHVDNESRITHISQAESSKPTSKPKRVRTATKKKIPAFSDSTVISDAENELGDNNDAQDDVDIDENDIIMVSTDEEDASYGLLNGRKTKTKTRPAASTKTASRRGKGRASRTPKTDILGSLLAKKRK


Experiments:
ScMre11p [1] = target: T1, ScMre11p; assay: EMSA
ScMre11p [2] = target: T1, ScMre11p; assay: EMSA; remark: listed apart in the source

Row | Binder | Kd (ScMre11p [1]) [µM] | binding result (ScMre11p [2])
1 | AATTCTGGGTGTGTGGGTGTGTGGGTGTGTGGGTGTGG (structured_DNA) [4G3 G4 DNA] | 0.07 | 
2 | 6G3 G4 DNA (structured_DNA) DNA: AATTCTGGGTGTGTGGGTGTGTGGGTGTGTGGGTGTGTGGGTGTGTGGGTGTGG |  | binds
